# Experiments:
# [1] = target: T1, human transferrin receptor 1 (hTfR1) (human, UniProt P02786 89-760, limits assumed); experiment: competition ELISA, Fab
# T1 construct: The selections used the biotinylated ECD domain of hTfR1
# [2] = target: T2, cynomolgus monkey transferrin receptor 1 (cTfR1) (cynomolgus monkey, UniProt H9EXL1 89-760 (rhesus entry)); experiment: competition ELISA, Fab
# T2 construct: The ELISA against cTfR1 is not described in the text
# [3] = target: T1, human transferrin receptor 1 (hTfR1); experiment: competition phage ELISA (phage-displayed Fab)
# [4] = target: T2, cynomolgus monkey transferrin receptor …; experiment: competition phage ELISA (phage-displayed Fab)
# [5] = target: T3, his-tagged hTfR1 (Acro Biosystems p/n CD1-H5243) (human, UniProt P02786 89-760); experiment: SPR, Biacore X100, His-tagged TfR1 captured by anti-His
# T3 construct: Bought reagent of the SPR assay
# T3 sequence (P02786 89-760 limits assumed): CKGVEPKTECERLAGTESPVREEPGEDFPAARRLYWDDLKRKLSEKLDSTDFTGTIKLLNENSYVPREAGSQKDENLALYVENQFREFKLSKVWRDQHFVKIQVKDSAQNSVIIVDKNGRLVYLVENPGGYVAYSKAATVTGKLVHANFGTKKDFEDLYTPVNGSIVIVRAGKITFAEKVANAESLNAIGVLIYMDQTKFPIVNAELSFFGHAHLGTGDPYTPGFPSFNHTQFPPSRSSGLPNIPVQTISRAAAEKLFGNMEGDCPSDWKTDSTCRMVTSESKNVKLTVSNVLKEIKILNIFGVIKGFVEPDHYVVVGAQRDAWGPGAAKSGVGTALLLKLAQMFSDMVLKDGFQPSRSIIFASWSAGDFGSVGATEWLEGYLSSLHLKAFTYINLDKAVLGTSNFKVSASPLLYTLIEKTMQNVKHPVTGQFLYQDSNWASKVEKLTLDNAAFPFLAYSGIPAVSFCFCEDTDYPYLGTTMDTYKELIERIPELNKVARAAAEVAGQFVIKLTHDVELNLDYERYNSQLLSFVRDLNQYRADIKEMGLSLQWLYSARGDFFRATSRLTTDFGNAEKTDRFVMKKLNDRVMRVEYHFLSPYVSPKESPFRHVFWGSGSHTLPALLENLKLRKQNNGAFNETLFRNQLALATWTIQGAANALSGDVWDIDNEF
# Method: Samples were analyzed via Surface Plasmon Resonance (SPR) to determine kinetics against human transferrin receptor 1 (hTfR1). Briefly, a Biacore X100 (Cytiva) was used for SPR measurements using a CM5 chip (carboxymethylated dextran surface, Cytiva p/n BR100399) with anti-histidine antibody irreversibly immobilized on the surface of both flow cells for the reversible capture of his-tagged hTfR1 (Acro Biosystems p/n CD1-H5243). The anti-histidine antibody was irreversibly immobilized via amine coupling using Cytiva provided Amine Coupling Kit (p/n BR100050) and His Capture Kit (p/n 28995056). […] Sample diluent was prepared in house and is composed of 10 mM HEPES buffer pH 7.4, 150 mM NaCl, 3 mM EDTA, and 0.05% Tween 20. Cytiva caps and vials compatible for Biacore X100 are used for sample analysis. Each analysis cycle consists of a capture step followed by sample or blank injection, and finally a regeneration step that removes any sample and hTfR1 on the sensor surface. The capture step was performed at 5 μL/min with a contact time of 24 seconds over the active flow cell only, followed by a fluidics wash with 0.1% Tween 20. Generally, 2 μg/mL hTfR1 is a sufficient concentration to observe adequate hTfR1 captured consistently between cycles. Sample or buffer was injected at 30 μL/min with a contact time of 180 seconds and a dissociation time of 180 seconds followed by a fluidics wash with 0.1% Tween 20. A 10 mM glycine solution at pH 1.5 (provided in His Capture Kit) was used for regeneration at 30 μL/min with a 60 second contact time. A cycle was performed for each sample concentration analyzed along with one cycle repeating one concentration for variability evaluation and 2-3 buffer cycles. Results were analyzed in Biacore Evaluation Software. Buffer cycles were averaged and subtracted from sample injections prior to kinetic fitting. A monovalent or kinetic fit was specified as relevant for the sample analyzed. Accuracy of the fit was evaluated and data points are excluded as applicable. […]
# [6] = target: T4, his-tagged cTfR1 (Acro Biosystems p/n TFR-C524a) (cynomolgus monkey, UniProt H9EXL1 89-760 (rhesus entry)); experiment: as above
# T4 construct: Bought reagent of the SPR assay
# T4 sequence (chain, as listed by the source): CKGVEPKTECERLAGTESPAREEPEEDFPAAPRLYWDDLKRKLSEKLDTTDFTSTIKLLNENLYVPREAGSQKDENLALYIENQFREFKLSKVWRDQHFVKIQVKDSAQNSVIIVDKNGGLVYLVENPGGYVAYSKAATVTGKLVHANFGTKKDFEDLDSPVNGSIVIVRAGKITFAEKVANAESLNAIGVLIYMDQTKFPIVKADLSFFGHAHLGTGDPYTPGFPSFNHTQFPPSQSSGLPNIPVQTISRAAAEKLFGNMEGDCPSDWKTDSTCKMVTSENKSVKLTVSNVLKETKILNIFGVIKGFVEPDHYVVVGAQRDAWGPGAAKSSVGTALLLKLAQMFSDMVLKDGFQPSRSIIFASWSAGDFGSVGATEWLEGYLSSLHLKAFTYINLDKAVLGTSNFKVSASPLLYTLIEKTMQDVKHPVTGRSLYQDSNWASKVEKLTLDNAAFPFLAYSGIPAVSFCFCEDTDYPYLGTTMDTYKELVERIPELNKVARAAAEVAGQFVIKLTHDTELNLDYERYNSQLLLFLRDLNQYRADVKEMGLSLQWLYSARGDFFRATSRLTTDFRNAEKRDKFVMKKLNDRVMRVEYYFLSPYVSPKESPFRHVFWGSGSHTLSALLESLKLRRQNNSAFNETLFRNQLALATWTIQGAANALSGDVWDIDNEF
# Method: Samples were analyzed via Surface Plasmon Resonance (SPR) to determine kinetics against cynomolgus monkey transferrin receptor 1 (cTfR1). Briefly, a Biacore X100 (Cytiva) was used for SPR measurements using a CM5 chip (carboxymethylated dextran surface, Cytiva p/n BR100399) with anti-histidine antibody irreversibly immobilized on the surface of both flow cells for the reversible capture of his-tagged cTfR1 (Acro Biosystems p/n TFR-C524a). The anti-histidine antibody was irreversibly immobilized via amine coupling using Cytiva provided Amine Coupling Kit (p/n BR100050) and His Capture Kit (p/n 28995056). […] Sample diluent was prepared in house and is composed of 10 mM HEPES buffer pH 7.4, 150 mM NaCl, 3 mM EDTA, and 0.05% Tween 20. Cytiva caps and vials compatible for Biacore X₁₀₀ were used for sample analysis. Each analysis cycle consists of a capture step followed by sample or blank injection, and finally a regeneration step that removes any sample and cTfR1 on the sensor surface. The capture step was performed at 5 μL/min with a contact time of 24 seconds over the active flow cell only, followed by a fluidics wash with 0.1% Tween 20. Generally, 2 μg/mL hTfR1 was a sufficient concentration to observe adequate hTfR1 captured consistently between cycles. Sample or buffer was injected at 30 μL/min with a contact time of 180 seconds and dissociation time of 180 seconds followed by a fluidics wash with 0.1% Tween 20. A 10 mM glycine solution at pH 1.5 (provided in His Capture Kit) was used for regeneration at 30 μL/min with a 60 second contact time. A cycle was performed for each sample concentration analyzed along with one cycle repeating one concentration for variability evaluation and 2-3 buffer cycles. Results were analyzed in Biacore Evaluation Software. Buffer cycles were averaged and subtracted from sample injections prior to kinetic fitting. A monovalent or kinetic fit was specified as relevant for the sample analyzed. Accuracy of the fit is evaluated and data points are excluded as applicable.
# T1 sequence (P02786 89-760 limits assumed): as the sequence (P02786 89-760 limits assumed) above
# T2 sequence (chain, as listed by the source): as the sequence (chain, as listed by the source) above
Kd [1] [nM],Kd [2] [nM],Kd [3] [nM],Kd [4] [nM],Kd [5] [nM],koff [5] [s⁻¹],kon [5] [M⁻¹ s⁻¹],Kd [6] [nM],koff [6] [s⁻¹],kon [6] [M⁻¹ s⁻¹],Binder
0.33,2.87,0.26,0.57,0.413,0.00071,1.72e+06,1.45,0.00259,1.79e+06,"Fab0065 (Fab, V domains shown) VH: EVQLVESGGGLVQPGGSLRLSCATSGYTFTSYWVHWVRQAPGKGLEWVAEINPTNGRSNYIEKFKSRITLSVDKSKSTVYLQMNSLRAEDTAVYYCARGTRAYHYWGQGTLVTVSS VL: DIQLTQSPSSLSASVGDRVTITCRASDNLYRNLAWYQQKPGKAPKLLIYDATKLASGVPSRFSGSGSGTDYTLTISSLQPEDFATYYCQHFWGTPLTFGQGTKVEIKR"
0.32,8.68,0.29,1.95,0.351,0.00065,1.85e+06,2.85,0.00677,2.38e+06,"Fab0073 (Fab, V domains shown) VH: EVQLVESGGGLVQPGGSLRLSCATSGYTFKSYWMHWVRQAPGKGLEWVAEINPTNGRTNYIEKFKSRITLSVDKSKSTVYLQMNSLRAEDTAVYYCARGTRAYHYWGQGTLVTVSS VL: DIQLTQSPSSLSASVGDRVTITCRASDNLYRNLAWYQQKPGKAPKLLIYDATKLASGVPSRFSGSGSGTDYTLTISSLQPEDFATYYCQHFWGTPLTFGQGTKVEIKR"
0.43,53.3,0.45,0.74,0.553,0.000865,1.56e+06,8.13,0.0112,1.38e+06,"Fab0071 (Fab, V domains shown) VH: EVQLVESGGGLVQPGGSLRLSCATSGYTFNSYWMHWVRQAPGKGLEWVAEINPTNGRTNYIEKFKSRITLSVDKSKSTVYLQMNSLRAEDTAVYYCARGTRAYHYWGQGTLVTVSS VL: DIQLTQSPSSLSASVGDRVTITCRASDGLYSNLAWYQQKPGKAPKLLIYDARNLASGVPSRFSGSGSGTDYTLTISSLQPEDFATYYCQHFWGTPLTFGQGTKVEIKR"
0.75,4.68,0.35,1.29,0.783,0.00108,1.38e+06,2.72,0.00375,1.38e+06,"Fab0069 (Fab, V domains shown) VH: EVQLVESGGGLVQPGGSLRLSCATSGYTFTSYWVHWVRQAPGKGLEWVAEINPTNGRSNYIEKFKSRITLSVDKSKSTVYLQMNSLRAEDTAVYYCARGTRAYHYWGQGTLVTVSS VL: DIQLTQSPSSLSASVGDRVTITCRASDGLYSNLAWYQQKPGKAPKLLIYDATKLASGVPSRFSGSGSGTDYTLTISSLQPEDFATYYCQHFWGTPLTFGQGTKVEIKR"

# Second part, the binder before the results:
Binder,Kd [1] [nM],Kd [2] [nM],Kd [3] [nM],Kd [4] [nM],Kd [5] [nM],koff [5] [s⁻¹],kon [5] [M⁻¹ s⁻¹],Kd [6] [nM],koff [6] [s⁻¹],kon [6] [M⁻¹ s⁻¹]
"Fab0066 (Fab, V domains shown) VH: EVQLVESGGGLVQPGGSLRLSCATSGYTFTSYWVHWVRQAPGKGLEWVAEINPTNGRVNYIEKFKSRITLSVDKSKSTVYLQMNSLRAEDTAVYYCARGTRAYHYWGQGTLVTVSS VL: DIQLTQSPSSLSASVGDRVTITCRASDGLYSNLAWYQQKPGKAPKLLIYDAFNLASGVPSRFSGSGSGTDYTLTISSLQPEDFATYYCQHFWGTPLTFGQGTKVEIKR",0.91,9.4,0.87,1.34,1.41,0.00139,985000,4.35,0.00509,1.17e+06
"Fab0074 (Fab, V domains shown) VH: EVQLVESGGGLVQPGGSLRLSCATSGYTFKSYWMHWVRQAPGKGLEWVAEINPTNGRTNYIEKFKSRITLSVDKSKSTVYLQMNSLRAEDTAVYYCARGTRAYHYWGQGTLVTVSS VL: DIQLTQSPSSLSASVGDRVTITCRASDGLYSNLAWYQQKPGKAPKLLIYDAKNLASGVPSRFSGSGSGTDYTLTISSLQPEDFATYYCQHFWGTPLTFGQGTKVEIKR",0.46,17.5,0.46,2.14,0.471,0.000782,1.66e+06,4.31,0.0105,2.44e+06
"Fab0068 (Fab, V domains shown) VH: EVQLVESGGGLVQPGGSLRLSCATSGYTFTSYWVHWVRQAPGKGLEWVAEINPTNGRVNYIEKFKSRITLSVDKSKSTVYLQMNSLRAEDTAVYYCARGTRAYHYWGQGTLVTVSS VL: DIQLTQSPSSLSASVGDRVTITCRASDGLYSNLAWYQQKPGKAPKLLIYDATKLASGVPSRFSGSGSGTDYTLTISSLQPEDFATYYCQHFWGTPLTFGQGTKVEIKR",0.84,7.37,0.43,1.75,0.97,0.00113,1.17e+06,2.34,0.00366,1.57e+06
"Fab0070 (Fab, V domains shown) VH: EVQLVESGGGLVQPGGSLRLSCATSGFTFTSYWMHWVRQAPGKGLEWVAEINPTNGRTNYIEKFKSRITLSVDKSKSTVYLQMNSLRAEDTAVYYCARGTRAYHYWGQGTLVTVSS VL: DIQLTQSPSSLSASVGDRVTITCRASDKLYSNLAWYQQKPGKAPKLLIYDATLLASGVPSRFSGSGSGTDYTLTISSLQPEDFATYYCQHFWGTPLTFGQGTKVEIKR",1.11,15.3,0.49,1.39,0.923,0.0012,1.3e+06,4.52,0.00582,1.29e+06
"Fab0072 (Fab, V domains shown) VH: EVQLVESGGGLVQPGGSLRLSCATSGYTFNSYWMHWVRQAPGKGLEWVAEINPTNGRFNYIEKFKSRITLSVDKSKSTVYLQMNSLRAEDTAVYYCARGTRAYHYWGQGTLVTVSS VL: DIQLTQSPSSLSASVGDRVTITCRASDNLYRNLAWYQQKPGKAPKLLIYDARNLASGVPSRFSGSGSGTDYTLTISSLQPEDFATYYCQHFWGTPLTFGQGTKVEIKR",0.19,11.9,0.19,1.18,0.331,0.000614,1.86e+06,3.88,0.0108,2.78e+06
"Fab0067 (Fab, V domains shown) VH: EVQLVESGGGLVQPGGSLRLSCATSGYTFTSYWVHWVRQAPGKGLEWVAEINPTNGRTNYIEKFKSRITLSVDKSKSTVYLQMNSLRAEDTAVYYCARGTRAYHYWGQGTLVTVSS VL: DIQLTQSPSSLSASVGDRVTITCRASDNLYRNLAWYQQKPGKAPKLLIYDATKLASGVPSRFSGSGSGTDYTLTISSLQPEDFATYYCQHFWGTPLTFGQGTKVEIKR",0.52,3.02,0.35,0.95,0.543,0.000804,1.48e+06,1.75,0.00328,1.87e+06

# From patent US20260191981A1 (ARROWHEAD PHARMACEUTICALS, published 2026)
